Experimental data reported in paper PMC7809202, “Identification of fidelity-governing factors in human recombinases DMC1 and RAD51 from cryo-EM structures” (Nature Communications, 2021).
Substitutions are numbered along the chain they refer to. Names may count otherwise.

Key:
[1] = target: T1, human RAD51 (Homo sapiens, UniProt Q06609, V273P/D274G); experiment: cryo-EM structure of filament; conditions: 2 mM AMP-PNP, 5 mM CaCl2, pH 7.5, 37 °C; homologous dsDNA filament; ATP-binding site
T1 construct: untagged as described, human cDNA in pET11, E. coli BLR pRARE host; helical filament on dsDNA
T1 sequence (Q06609 2-339 V273P/D274G): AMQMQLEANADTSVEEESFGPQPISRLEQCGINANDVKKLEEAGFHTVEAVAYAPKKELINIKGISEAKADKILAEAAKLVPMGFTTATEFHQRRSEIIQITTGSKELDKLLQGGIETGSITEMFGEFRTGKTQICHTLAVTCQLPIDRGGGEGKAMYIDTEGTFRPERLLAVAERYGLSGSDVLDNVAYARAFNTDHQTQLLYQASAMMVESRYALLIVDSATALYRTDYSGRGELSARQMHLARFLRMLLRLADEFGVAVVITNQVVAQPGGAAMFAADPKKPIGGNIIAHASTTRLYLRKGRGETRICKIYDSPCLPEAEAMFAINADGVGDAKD

[2] = target: T2, DMC1-PvGd (Homo sapiens, UniProt Q14565 1-340, P274V;G275D); experiment: EMSA; 2 mM ATP, 10 mM Mg2+; EMSA: 35 mM Tris-HCl pH 7.5, 1 mM DTT, 10 mM MgCl2, 100 ng/ul BSA, 50 mM KCl, 2 mM ATP, 37 °C 10 min; DNA 3 uM nucleotides or base pairs; conditions: protein: recombinant, tags: His6
T2 sequence: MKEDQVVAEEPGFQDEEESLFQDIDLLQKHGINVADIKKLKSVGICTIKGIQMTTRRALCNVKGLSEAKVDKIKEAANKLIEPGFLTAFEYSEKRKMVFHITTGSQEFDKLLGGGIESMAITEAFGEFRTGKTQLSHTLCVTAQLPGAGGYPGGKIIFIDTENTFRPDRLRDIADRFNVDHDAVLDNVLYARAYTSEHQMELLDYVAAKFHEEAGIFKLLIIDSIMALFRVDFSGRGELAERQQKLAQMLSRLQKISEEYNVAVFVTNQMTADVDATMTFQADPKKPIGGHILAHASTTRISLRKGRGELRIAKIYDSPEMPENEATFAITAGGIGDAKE

[3] = target: T3, DMC1-QmPvGd (Homo sapiens, UniProt Q14565 1-340, Q244M;P274V;G275D); experiment: as above; conditions: protein: recombinant, tags: His6
T3 sequence: T2 sequence with Q244M

[4] = target: T4, DMC1 WT (Homo sapiens, UniProt Q14565 1-340); experiment: cryo-EM structure; AMP-PNP; EMSA: 35 mM Tris-HCl pH 7.5, 1 mM DTT, 10 mM MgCl2, 100 ng/ul BSA, 50 mM KCl, 2 mM ATP, 37 °C 10 min; DNA 3 uM nucleotides or base pairs; conditions: protein: recombinant; tags: His6; single strand
T4 sequence: T2 sequence with V274P, D275G

[5] = target: the molecule itself; experiment: cryo-EM structure; helical filaments: 4 uM DMC1 (or RAD51) protein with 24 uM nucleotides of ssDNA (presynaptic) or dsDNA (postsynaptic) in 35 mM Tris-HCl pH 7.5, 108 mM KCl, 1 mM DTT, 2 mM AMP-PNP, 5 mM CaCl2, 37 °C, 30 min; helical reconstruction; protomer to protomer within a nucleoprotein filament
[6] = target: T5, DMC1-Q244M (Qm) (Homo sapiens, UniProt Q14565 1-340, Q244M); experiment: cryo-EM structure; DNA too flexible to be observed; EMSA: 35 mM Tris-HCl pH 7.5, 1 mM DTT, 10 mM MgCl2, 100 ng/ul BSA, 50 mM KCl, 2 mM ATP, 37 °C 10 min; DNA 3 uM nucleotides or base pairs; conditions: protein: recombinant; tags: His6; blunt
T5 sequence: T2 sequence with Q244M, V274P, D275G

[7] = target: T4, DMC1 WT; experiment: cryo-EM structure; EMSA: 35 mM Tris-HCl pH 7.5, 1 mM DTT, 10 mM MgCl2, 100 ng/ul BSA, 50 mM KCl, 2 mM ATP, 37 °C 10 min; DNA 3 uM nucleotides or base pairs; conditions: protein: recombinant, tags: His6, blunt
[8] = label: 5'-32P (EMSA), single strand
[9] = label: 5'-32P on Oligo 1, blunt

## Nc1ncnc2c1ncn2[C@@H]1O[C@H](COP(=O)(O)OP(=O)(O)NP(=O)(O)O)[C@@H](O)[C@H]1O [AMP-PNP]
[1]
  cryo-EM structure of filament: solved the structure of the dsDNA filaments of the double mutant RAD51-VpDg

B1: Oligo 1 80-mer ssDNA (ssDNA)
DNA: TTATGTTCATTTTTTATATCCTTTACTTTATTTTCTCTGTTTATTCATTTACTTATTTTGTATTATCCTTATCTTATTTA
[2]; [8]
  binding signal: ~60 % of WT binding (approx. 40% lost)
[3]; [8]
  binding signal: ~40 % of WT binding (approx. 60% lost)

B2: Oligo 1 80-mer ssDNA, unlabeled (ssDNA)
DNA: B1 DNA
[4]
  binding result: binds

B3: Oligo 1/Oligo 2 80 bp dsDNA (dsDNA)
DNA 1: B1 DNA
DNA 2: TAAATAAGATAAGGATAATACAAAATAAGTAAATGAATAAACAGAGAAAATAAAGTAAAGGATATAAAAAATGAACATAA
[2]; [9]
  binding signal: ~60 % of WT binding (approx. 40% lost)
[3]; [9]
  binding signal: ~40 % of WT binding (approx. 60% lost)

B4: human RAD51-V273P/D274G (natural protein)
chain: MAMQMQLEANADTSVEEESFGPQPISRLEQCGINANDVKKLEEAGFHTVEAVAYAPKKELINIKGISEAKADKILAEAAKLVPMGFTTATEFHQRRSEIIQITTGSKELDKLLQGGIETGSITEMFGEFRTGKTQICHTLAVTCQLPIDRGGGEGKAMYIDTEGTFRPERLLAVAERYGLSGSDVLDNVAYARAFNTDHQTQLLYQASAMMVESRYALLIVDSATALYRTDYSGRGELSARQMHLARFLRMLLRLADEFGVAVVITNQVVAQPGGAAMFAADPKKPIGGNIIAHASTTRLYLRKGRGETRICKIYDSPCLPEAEAMFAINADGVGDAKD
notes: RAD51, human; site-directed mutant of the RAD51 cDNA in vector pET11; Protomer of a helical filament assembled on dsDNA with AMP-PNP and Ca2+; also called RAD51-VpDg; RAD51-V273P, D274G mutant
[5]
  binding result: binds

B5: human DMC1 (wild type) (natural protein)
chain: T2 sequence with V274P, D275G
notes: DMC1, human; cDNA in vector pRSFDuet; Protomer of a helical filament assembled on ssDNA or dsDNA with AMP-PNP and Ca2+; also called DMC1-WT; WT DMC1; source: E. coli RecA-deficient BLR strain with pRARE, purified (TALON, Source Q, macrohydroxyapatite, Mono Q)
[5]
  binding result: binds

B6: human DMC1-Q244M (natural protein)
chain: T2 sequence with Q244M, V274P, D275G
notes: DMC1, human; site-directed mutant of the DMC1 cDNA in pRSFDuet; Protomer of a helical filament assembled with homologous dsDNA, AMP-PNP and Ca2+; the DNA density was not observable in the map; also called DMC1-Qm; source: E. coli BLR pRARE, purified as described for the WT protein
[5]
  binding result: binds

B7: Oligo 3/Oligo 4 15 bp homologous dsDNA (dsDNA)
DNA 1: ACGGGCAACAGCTGA
DNA 2: TCAGCTGTTGCCCGT
[6]
  binding result: binds
[7]
  binding result: binds

B8: Oligo 3/Oligo 5 15 bp mismatched dsDNA (dsDNA)
DNA 1: ACGGGCAACAGCTGA
DNA 2: TCAGCTGTCGCCCGT
[7]; one A-C mismatch
  binding result: binds
